B1: Ribosome quality control complex subunit TCF25 (Homo sapiens), Q9BQ70 (parent)
chain: MSRRALRRLRGEQRGQEPLGPGALHFDLRDDDDAEEEGPKRELGVRRPGGAGKEGVRVNNRFELINIDDLEDDPVVNGERSGCALTDAVAPGNKGRGQRGNTESKTDGDDTETVPSEQSHASGKLRKKKKKQKNKKSSTGEASENGLEDIDRILERIEDSTGLNRPGPAPLSSRKHVLYVEHRHLNPDTELKRYFGARAILGEQRPRQRQRVYPKCTWLTTPKSTWPRYSKPGLSMRLLESKKGLSFFAFEHSEEYQQAQHKFLVAVESMEPNNIVVLLQTSPYHVDSLLQLSDACRFQEDQEMARDLVERALYSMECAFHPLFSLTSGACRLDYRRPENRSFYLALYKQMSFLEKRGCPRTALEYCKLILSLEPDEDPLCMLLLIDHLALRARNYEYLIRLFQEWEAHRNLSQLPNFAFSVPLAYFLLSQQTDLPECEQSSARQKASLLIQQALTMFPGVLLPLLESCSVRPDASVSSHRFFGPNAEISQPPALSQLVNLYLGRSHFLWKEPATMSWLEENVHEVLQAVDAGDPAVEACENRRKVLYQRAPRNIHRHVILSEIKEAVAALPPDVTTQSVMGFDPLPPSDTIYSYVRPERLSPISHGNTIALFFRSLLPNYTMEGERPEEGVAGGLNRNQGLNRLMLAVRDMMANFHLNDLEAPHEDDAEGEGEWD
B2: Keratin, type I cytoskeletal 20 (Homo sapiens), P35900 (parent)
chain: MDFSRRSFHRSLSSSLQAPVVSTVGMQRLGTTPSVYGGAGGRGIRISNSRHTVNYGSDLTGGGDLFVGNEKMAMQNLNDRLASYLEKVRTLEQSNSKLEVQIKQWYETNAPRAGRDYSAYYRQIEELRSQIKDAQLQNARCVLQIDNAKLAAEDFRLKYETERGIRLTVEADLQGLNKVFDDLTLHKTDLEIQIEELNKDLALLKKEHQEEVDGLHKHLGNTVNVEVDAAPGLNLGVIMNEMRQKYEVMAQKNLQEAKEQFERQTAVLQQQVTVNTEELKGTEVQLTELRRTSQSLEIELQSHLSMKESLEHTLEETKARYSSQLANLQSLLSSLEAQLMQIRSNMERQNNEYHILLDIKTRLEQEIATYRRLLEGEDVKTTEYQLSTLEERDIKKTRKIKTVVQEVVDGKVVSSEVKEVEENI
partner: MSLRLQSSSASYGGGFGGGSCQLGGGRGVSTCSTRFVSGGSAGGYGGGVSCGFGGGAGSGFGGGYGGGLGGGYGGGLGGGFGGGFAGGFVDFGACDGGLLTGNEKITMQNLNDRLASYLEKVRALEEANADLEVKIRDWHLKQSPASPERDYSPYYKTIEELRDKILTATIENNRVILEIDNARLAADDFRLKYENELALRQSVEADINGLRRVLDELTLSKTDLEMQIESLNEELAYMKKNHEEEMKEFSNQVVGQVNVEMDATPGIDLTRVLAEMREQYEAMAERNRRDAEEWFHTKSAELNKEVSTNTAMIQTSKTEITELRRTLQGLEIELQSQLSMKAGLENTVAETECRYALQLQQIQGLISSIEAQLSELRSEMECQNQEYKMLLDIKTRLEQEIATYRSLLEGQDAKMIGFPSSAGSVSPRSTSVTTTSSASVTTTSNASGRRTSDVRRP
B3: Protein SSX3 (Homo sapiens), Q99909 (parent)
chain: MNGDDTFARRPTVGAQIPEKIQKAFDDIAKYFSKEEWEKMKVSEKIVYVYMKRKYEAMTKLGFKAILPSFMRNKRVTDFQGNDFDNDPNRGNQVQRPQMTFGRLQGIFPKIMPKKPAEEGNVSKEVPEASGPQNDGKQLCPPGKPTTSEKINMISGPKRGEHAWTHRLRERKQLVIYEEISDPEEDDE
partner: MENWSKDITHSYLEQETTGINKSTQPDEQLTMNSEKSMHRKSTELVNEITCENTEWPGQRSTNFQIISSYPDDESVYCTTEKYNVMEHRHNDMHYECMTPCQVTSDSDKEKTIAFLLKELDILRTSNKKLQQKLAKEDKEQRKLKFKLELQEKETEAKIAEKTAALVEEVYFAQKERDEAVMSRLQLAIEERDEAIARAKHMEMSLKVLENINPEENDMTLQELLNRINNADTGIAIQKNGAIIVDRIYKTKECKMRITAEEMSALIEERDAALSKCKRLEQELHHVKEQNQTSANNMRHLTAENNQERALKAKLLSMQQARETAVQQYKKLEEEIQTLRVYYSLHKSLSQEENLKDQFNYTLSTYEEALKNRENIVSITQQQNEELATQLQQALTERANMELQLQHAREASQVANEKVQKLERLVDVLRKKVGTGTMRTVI
B4: Alpha-ketoglutarate-dependent dioxygenase alkB homolog 3 (Homo sapiens), Q96Q83 (parent)
chain: MEEKRRRARVQGAWAAPVKSQAIAQPATTAKSHLHQKPGQTWKNKEHHLSDREFVFKEPQQVVRRAPEPRVIDREGVYEISLSPTGVSRVCLYPGFVDVKEADWILEQLCQDVPWKQRTGIREDITYQQPRLTAWYGELPYTYSRITMEPNPHWHPVLRTLKNRIEENTGHTFNSLLCNLYRNEKDSVDWHSDDEPSLGRCPIIASLSFGATRTFEMRKKPPPEENGDYTYVERVKIPLDHGTLLIMEGATQADWQHRVPKEYHSREPRVNLTFRTVYPDPRGAPW
partner: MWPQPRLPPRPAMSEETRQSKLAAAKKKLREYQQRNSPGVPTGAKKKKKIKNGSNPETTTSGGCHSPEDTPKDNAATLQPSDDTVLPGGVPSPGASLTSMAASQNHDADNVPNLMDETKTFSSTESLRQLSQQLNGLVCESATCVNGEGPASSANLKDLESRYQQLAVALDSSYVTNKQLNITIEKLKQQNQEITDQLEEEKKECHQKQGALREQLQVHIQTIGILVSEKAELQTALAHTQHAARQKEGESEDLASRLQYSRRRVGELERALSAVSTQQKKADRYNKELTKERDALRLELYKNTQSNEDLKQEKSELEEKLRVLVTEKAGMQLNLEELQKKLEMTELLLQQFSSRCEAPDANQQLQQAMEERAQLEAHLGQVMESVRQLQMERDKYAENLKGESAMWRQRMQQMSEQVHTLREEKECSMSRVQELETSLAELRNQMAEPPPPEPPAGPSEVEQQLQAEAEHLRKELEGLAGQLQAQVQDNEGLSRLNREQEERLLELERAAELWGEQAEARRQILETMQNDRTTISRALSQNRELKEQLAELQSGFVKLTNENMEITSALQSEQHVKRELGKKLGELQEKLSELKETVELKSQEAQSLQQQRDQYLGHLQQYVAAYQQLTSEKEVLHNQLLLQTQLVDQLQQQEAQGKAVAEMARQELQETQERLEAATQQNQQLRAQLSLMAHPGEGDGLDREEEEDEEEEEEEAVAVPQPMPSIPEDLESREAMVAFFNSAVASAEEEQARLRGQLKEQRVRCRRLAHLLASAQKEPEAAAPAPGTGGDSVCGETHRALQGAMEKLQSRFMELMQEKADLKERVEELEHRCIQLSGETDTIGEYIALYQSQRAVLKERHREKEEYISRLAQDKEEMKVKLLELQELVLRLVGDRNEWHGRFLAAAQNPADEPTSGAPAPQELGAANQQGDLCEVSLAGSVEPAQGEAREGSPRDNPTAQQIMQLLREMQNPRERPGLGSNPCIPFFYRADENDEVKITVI
B5: Vacuolar protein sorting-associated protein 28 homolog (Homo sapiens), Q9UK41-2 (parent)
chain: MFHGIPATPGIGAPGNKPELYEEVKLYKNAREREKYDNMAELFAVVKTMQALEKAYIKDCVSPSEYTAACSRLLVQYKAAFRQVQGSEISSIDEFCRKFRLDCPLAMERIKEDRPITIKDDKGNLNRCIADVVSLFITVMDKLRLEIRAMDEIQPDLRELMETMHRMSHLPPDFEGRQTVSQWWVSLPARQSPAVPETLPARRSPAVPLRPSAPTCPVLHSQAADPERHVGVR
B6: Elongin-A2 (Homo sapiens), Q8IYF1 (parent)
chain: MAAGSTTLHAVEKLQVRLATKTEPKKLEKYLQKLSALPMTADILAETGIRKTVKRLRKHQHVGDFARDLAARWKKLVLVDRNTRPGPQDPEESASRQRFGEALQDQEKAWGFPENATAPRSPSHSPEHRRTARRTPPGQQRPHPRSHSREPRAERKCPRIAPADSGRYRASPTRTAPLRMPEGPEPAAPGKQPGRGHTHAAQGGPLLCPGCQGQPQGKAVVSHSKGHKSSRQEKRPLCAQGDWHSPTLIREKSCGACLREETPRMPSWASARDRQPSDFKTDKEGGQAGSGQRVPALEEAPDSHQKRPQHSHSNKKRPSLDGRDPGNGTHGLSPEEKEQLSNDRETQEGKPPTAHLDRTSVSSLSEVEEVDMAEEFEQPTLSCEKYLTYDQLRKQKKKTGKSATTALGDKQRKANESKGTRESWDSAKKLPPVQESQSERLQAAGADSAGPKTVPSHVFSELWDLSEAWMQANYDPLSDSDSMTSQAKPEALSSPKFREEAAFPGRRVNAKMPVYSGSRPACQLQVPTLRQQCAQVLRNNPDALSDVGEVPYWVLEPVLEGWRPDQLYRRKKDNHALVRETDELRRNHCFQDFKEEKPQENKTWREQYLRLPDAPEQRLRVMTTNIRSARGNNPNGREAKMICFKSVAKTPYDTSRRQEKSAGDADPENGEIKPASKPAGSSHTPSSQSSSGGGRDSSSSILRWLPEKRANPCLSSSNEHAAPAAKTRKQAAKKVAPLMAKAIRDYKRRFSRR
partner: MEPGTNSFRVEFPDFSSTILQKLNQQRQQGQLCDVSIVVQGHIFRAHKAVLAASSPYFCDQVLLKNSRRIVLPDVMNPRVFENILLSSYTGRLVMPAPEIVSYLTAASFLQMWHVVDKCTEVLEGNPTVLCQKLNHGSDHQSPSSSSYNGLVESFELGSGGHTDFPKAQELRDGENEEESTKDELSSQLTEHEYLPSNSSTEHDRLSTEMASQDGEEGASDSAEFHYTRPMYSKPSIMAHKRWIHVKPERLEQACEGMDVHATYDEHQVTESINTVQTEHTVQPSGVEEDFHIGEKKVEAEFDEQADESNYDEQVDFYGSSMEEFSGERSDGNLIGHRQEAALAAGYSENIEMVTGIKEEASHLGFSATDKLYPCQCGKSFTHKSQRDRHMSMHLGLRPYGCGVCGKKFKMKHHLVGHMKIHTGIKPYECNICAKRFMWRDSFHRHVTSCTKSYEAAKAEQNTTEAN
B7: Segment polarity protein dishevelled homolog DVL-2 (Homo sapiens), O14641 (parent)
chain: MAGSSTGGGGVGETKVIYHLDEEETPYLVKIPVPAERITLGDFKSVLQRPAGAKYFFKSMDQDFGVVKEEISDDNARLPCFNGRVVSWLVSSDNPQPEMAPPVHEPRAELAPPAPPLPPLPPERTSGIGDSRPPSFHPNVSSSHENLEPETETESVVSLRRERPRRRDSSEHGAGGHRTGGPSRLERHLAGYESSSTLMTSELESTSLGDSDEEDTMSRFSSSTEQSSASRLLKRHRRRRKQRPPRLERTSSFSSVTDSTMSLNIITVTLNMEKYNFLGISIVGQSNERGDGGIYIGSIMKGGAVAADGRIEPGDMLLQVNDMNFENMSNDDAVRVLRDIVHKPGPIVLTVAKCWDPSPQAYFTLPRNEPIQPIDPAAWVSHSAALTGTFPAYPGSSSMSTITSGSSLPDGCEGRGLSVHTDMASVTKAMAAPESGLEVRDRMWLKITIPNAFLGSDVVDWLYHHVEGFPERREARKYASGLLKAGLIRHTVNKITFSEQCYYVFGDLSGGCESYLVNLSLNDNDGSSGASDQDTLAPLPGATPWPLLPTFSYQYPAPHPYSPQPPPYHELSSYTYGGGSASSQHSEGSRSSGSTRSDGGAGRTGRPEERAPESKSGSGSESEPSSRGGSLRRGGEASGTSDGGPPPSRGSTGGAPNLRAHPGLHPYGPPPGMALPYNPMMVVMMPPPPPPVPPAVQPPGAPPVRDLGSVPPELTASRQSFHMAMGNPSEFFVDVM
partner: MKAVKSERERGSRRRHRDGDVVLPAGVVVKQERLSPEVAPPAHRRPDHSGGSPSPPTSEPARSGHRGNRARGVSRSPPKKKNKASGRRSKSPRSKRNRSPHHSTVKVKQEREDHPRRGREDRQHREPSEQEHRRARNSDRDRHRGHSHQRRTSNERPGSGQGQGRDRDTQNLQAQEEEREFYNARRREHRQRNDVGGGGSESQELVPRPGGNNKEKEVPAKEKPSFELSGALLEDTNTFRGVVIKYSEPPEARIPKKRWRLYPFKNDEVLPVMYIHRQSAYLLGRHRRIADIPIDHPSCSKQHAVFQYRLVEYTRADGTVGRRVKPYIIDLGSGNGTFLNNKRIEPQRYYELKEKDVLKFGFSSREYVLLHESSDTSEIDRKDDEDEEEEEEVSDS

Variants of: B1
Conditions: with sat1_human SAT1, P21673
Sequence of sat1_human SAT1, P21673 (P21673 whole entry): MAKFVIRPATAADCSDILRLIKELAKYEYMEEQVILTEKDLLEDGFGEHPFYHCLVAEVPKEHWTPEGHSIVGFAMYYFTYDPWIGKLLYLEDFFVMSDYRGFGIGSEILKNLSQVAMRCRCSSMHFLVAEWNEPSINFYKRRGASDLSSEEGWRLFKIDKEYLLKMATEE

| Variant | effect of a mutation on the interaction |
| --- | --- |
| V526A | with no effect |

Variants of: B2
Conditions: with KRT13, P13646

| Variant | effect of a mutation on the interaction |
| --- | --- |
| S309Y | with no effect |
| S129N | with no effect |

Variants of: B3
Conditions: with mipo1_human MIPOL1, Q8TD10

| Variant | effect of a mutation on the interaction |
| --- | --- |
| R159S | with no effect |

Variants of: B4
Conditions: with goga2_human GOLGA2, Q08379

| Variant | effect of a mutation on the interaction |
| --- | --- |
| G39C | with no effect |

Variants of: B5
Conditions: with ts101_human TSG101, Q99816

| Variant | effect of a mutation on the interaction |
| --- | --- |
| R203W | with no effect |

Variants of: B6
Conditions: with zbt43_human ZBTB43, O43298

| effect of a mutation on the interaction | Variant |
| --- | --- |
| with no effect | G505R |
| with no effect | A446T |

The next lines start with the variant.

| Variant | effect of a mutation on the interaction |
| --- | --- |
| D302H | with no effect |
| C254F | disrupting interaction strength |

Variants of: B7
Conditions: with snip1_human SNIP1, Q8TAD8

| Variant | effect of a mutation on the interaction |
| --- | --- |
| A53V | with no effect |
| T535I | with no effect |

Reference: IntAct's records for PubMed 31515488
